Measurements: patent publication US20260167739A1 (PHANES THERAPEUTICS, published 2026)
Substitutions are numbered along the chain they refer to.

T1: human 5T4 (32-355) tagged with poly-his at the C-terminus (ACROBiosystems, CAT #TPG-H52E5) (human, UniProt Q13641 32-355)
T1 construct: range 32-355; Bought protein; also called recombinant human 5T4; recombinant 5T4 Ser32-Ser355; not shown: C-terminal poly-his tag
T1 sequence (looked up): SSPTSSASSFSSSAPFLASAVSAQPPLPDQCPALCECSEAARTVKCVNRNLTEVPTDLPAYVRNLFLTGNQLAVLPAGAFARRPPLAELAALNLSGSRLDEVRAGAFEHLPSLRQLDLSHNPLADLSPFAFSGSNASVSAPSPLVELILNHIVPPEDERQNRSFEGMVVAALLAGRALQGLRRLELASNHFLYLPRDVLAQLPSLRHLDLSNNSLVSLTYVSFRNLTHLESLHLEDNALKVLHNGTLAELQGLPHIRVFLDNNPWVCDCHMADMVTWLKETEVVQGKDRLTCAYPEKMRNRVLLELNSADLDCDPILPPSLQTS

B1: L3F10-C (antibody, V domains shown)
VH: EVKLVESGGGLVNTGGSLKLSCAASGFTFSDYFMYWVRQTPDKRLEWVAYISNSGGNTYYPDTVKGRFTISRDNAKNTLYLQMSRLKSEDTAMYFCTRPRPYGGYYAGIYYAMDYWGQGTSVTVSS
VL: DIQMTQTTSSLSASLGDRVTISCRASQDISNYLNWYQQKPDGTVKLLIYYTSRLHSGVPSRFSGSGSGTDYSLTISNLEPEDIATYYCQQYSKLPLTFGAGTKLELK
notes: Mouse VH and VL fused to the constant regions of human IgG1 heavy chain and kappa light chain; also called chimeric version of L3F10
B2: L1D8-CR11-C (antibody, V domains shown)
VH: QVQLQQSGAELMKPGASLKLSCKATGYTFTGYWIEWVKQRPGHGLEWIGEILPGRSSTNYNERFKGKAIFTADTSSNTAYMQLSSLTTEDSAIYYCARGRRDFDYWGQGTTITVSS
VL: SIVMTQTPKFLPVSAGDRVTMTCKASQSVGNNVAWYQQKPGQSPKVLIYDASNRYTGVPDRFTGSGSGTDFTFTISSVQVEDLAVYFCQQYYSSPPTFGAGTKLELK
notes: Mouse VH and VL fused to human IgG1 heavy and kappa light constant regions; also called chimeric version of L1D8-CR11; LID8-CR11
B3: L1D8-CR21-C (antibody, V domains shown)
VH: B2 VH with Y32S
VL: B2 VL
notes: Mouse VH and VL fused to human IgG1 heavy and kappa light constant regions; also called chimeric version of L1D8-CR21; LID8-CR21
B4: L1C7-C (antibody, V domains shown)
VH: EFQLQQSGPEVVKPGASVKISCKASGYSFTVYNMNWVKQSNGKSLDWIGVINPNYGTVTYNQKFKGKATLTVDQSSSTAYMQLNSLSSEDSAVYYCATTATWGQGTTLTVSS
VL: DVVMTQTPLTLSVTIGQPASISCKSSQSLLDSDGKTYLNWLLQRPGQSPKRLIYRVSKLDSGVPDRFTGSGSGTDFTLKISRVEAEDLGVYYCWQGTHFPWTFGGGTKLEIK
notes: Mouse VH and VL fused to human IgG1 heavy and kappa light constant regions; also called chimeric version of L1C7
B5: L3D5-C (antibody, V domains shown)
VH: GVQLQQSGPELVKPGASVKISCKASGYTFTDFYMNWVKQSHGKSLEWIGDINPNNGVTTYNQKFKDKATLTVDKSSSTAYMELRSLTSEDSAVYYCATGAIHYGYDGYFDVWGAGTTVTVSS
VL: DIVMTQSPATLSVTPGDRVSLSCRASQSISDYLHWYQQKSHESPRLLIKYASQSISGIPSRFSGSGSGSDFTLSINSVEPEDVGVYYCQNGHSFPLTFGAGTKLELK
notes: Mouse VH and VL fused to human IgG1 heavy and kappa light constant regions; also called chimeric version of L3D5
B6: S3C7-C (antibody, V domains shown)
VH: EVKLVESGGGLVNTGGSLKLSCAASGFNFSHYYMYWVRQTPEKRLEWVAYIGNSGGSTYNPDTVKGRFTISRDNAKNTLYLQMSRLKSEDTAIYYCARQNYYSGSFYFDSWGQGTTITVSS
VL: NIVLTQSPTSMSMSVGERVTLSCKASENVGTYVSWYQQKPEQSPKLLIYGKSNRYTGVPDRFTGSGSAPDFTLTISSVQAEDLADYYCGQSYSFPFTFGTGTKLEIK
notes: Mouse VH and VL fused to human IgG1 heavy and kappa light constant regions; also called chimeric version of S3C7
B7: S2F4-C (antibody, V domains shown)
VH: EVQLVESGGGLVKPGGSLKLSCAASGFTFSDYGMHWVRQAPEKGLEWIAYISFGSSTIYYADTVKGRFTISRDNAKNTLFLQMTSLRSEDTAMYYCARTHGYYRSWFAYWGQGTLVTVSA
VL: DIVLTQSPASLAVSLGQRATISCRASQSVSTSSYSYMNWYQQKPGQPPKLLIKYASNLESGVPARFSGSGSGTDFTLNIHPVEEEDTATYYCQHSWEIPLTFGAGTKLELK
notes: Mouse VH and VL fused to human IgG1 heavy and kappa light constant regions; also called chimeric version of S2F4
B8: L1H7-C (antibody, V domains shown)
VH: QVQLQQSGPELVKPGASVKISCKASGYAFSSSWMNWVKQRPGKGLEWIGRIYPGNGNTNYNGKFKGKATLTADKSSSTAYMQLNSLTSEDSAVYFCASRFAYWGQGTLVAVSA
VL: DIVLTQSPASLAVSLGQRATISCRASKSVSTSGYSYMHWYQQKPGQPPKLLIYLASNLESGVPARFSGSGSGTDFTLNIHPVEEEDAATYYCQHSRELRTFGGGTKLEIK
notes: Mouse VH and VL fused to human IgG1 heavy and kappa light constant regions; also called chimeric version of L1H7
B9: L1F2-C (antibody, V domains shown)
VH: QVHLQQSGAELVRPGTSVKVSCKASGYAFTNYVIEWVKQRPGQGLEWIGVINPGSGGTNYNENFKGKATLTADKSSSTAYMQLSSLTSEDSAVYFCARGTVELYAMDYWGQGTSVTVSS
VL: DIQMTQTTSSLSASLGDRVTISCRASQDISYYLNWYQQKPDGTVKLLISYTSRLHSGVPSRFSGSGSGTDYSLTISNLEQEDIATYFCQQDIKHPYTFGGGTELEIK
notes: Mouse VH and VL fused to human IgG1 heavy and kappa light constant regions; also called chimeric version of L1F2
B10: L3E1-C (antibody, V domains shown)
VH: QVQLQQFGAELVKPGAAVKMSCKASGYTFTSYWITWVKQRPGQGLDWIGDIYPGGGSTNYHEKFKSKATLTVDTSSSTAYMQLSSLTSEDSAVYYCARGLRDFDYWGQGTTITVSS
VL: B1 VL with T8A, D28H, S30N, Y50S, Y71F, L96R, A100G, L106I
notes: Mouse VH and VL fused to human IgG1 heavy and kappa light constant regions; also called chimeric version of L3E1
B11: L2B11-C (antibody, V domains shown)
VH: EVKLVESEGGLVQPGSSMKLSCTASGFTFSDYYMAWVRQVPEKGLEWVGNINYDGSRTYYLDSLKSRFIISRDNGKNILYLQMSSLKSEDTATYYCAREGDNYGNSHYAMDYWGQGTSVTVSS
VL: DVLMTQTPLSLPVSLGDQASISCRSSQSFVHSNGNTYLEWYLQKPGQSPKLLIYKVSNRFSGVPDRFTGSGSGTDFTLKISRVEAEDLGVYYCFQGSHVPLTFGAGTRLELK
notes: Mouse VH and VL fused to human IgG1 heavy and kappa light constant regions; also called chimeric version of L2B11

Biological target: T1, human 5T4 (32-355) tagged with poly-his …
Assay: ELISA, 5T4-His coated on the plate
Source text: FIGS. 1A-IC show the binding of purified chimeric anti-5T4 mAbs (VH and VL regions of mouse mAb fused to the constant regions of human IgG1 heavy chain and kappa light chain, respectively) to immobilized recombinant 5T4 in an ELISA assay. The antigen was human 5T4 (32-355) tagged with poly-his at the C-terminus (ACROBiosystems, CAT #TPG-H52E5). L3F10-C, the chimeric version of L3F10; the same naming rule is used for the rest of the antibodies. Isotype Control (IgG1), a negative control antibody.
Purified chimeric mAbs were tested in an ELISA assay for their ability to bind to immobilized 5T4. Recombinant human 5T4 (ACROBiosystems, CAT #TPG-H52E5) in PBS was coated onto a 96-well plate (Corning, CAT #3361) at 4° C. overnight. The next day, plates were blocked using 5% BSA in TBST for 1 hour at room temperature and washed using TBST. Antibody samples at various concentrations in 5% BSA in TBST were added to the wells and incubated for 1 hour at room temperature. Plates were washed with TBST and bound antibody was labeled using mouse anti-human IgG Fc HRP (Thermo, CAT #H10007) for 1 hour at room temperature. Plates were washed again using TBST, and then ELISAs were developed using 1 Step Ultra TMB detection reagent (Thermo, CAT #34028) for 4 minutes before being quenched with ELISA stop solution (Thermo. CAT #SS04). Plates were quantified by measuring absorbance at 450 nm by plate reader.

Binding result, binds:
B1
B2
B3
B4
B5
B6
B7
B8
B9
B10
B11
